From US8680241B2 (priority 2009, dated 2014)

Target: peptide-6 (SEQ ID NO. 15) (Mycobacterium tuberculosis, UniProt P9WPE7)

B1: VH2/VK3: humanized anti-peptide-6 IgG1; heavy chain variable region SEQ ID NO: 21, light chain variable region SEQ ID NO: 26 (antibody, V domains shown)
VH: QVTLKESGPALVKPTQTLTLTCSFSGFSLSTSNMGVGWIRQPAGKGLEWLLHILWNDSKYYNPALKSRLTISKDTYKNQVVLTMTNMDPVDTATYYCARMGGYYGNYGYYAMDYWGQGTLVTVSS
VL: QIVLTQSPATLSLSPGERATLSCTASSSVSSSYLHWYQQKPGKAPKLWIYSTSNLASGVPSRFSGSGSGTDYTLTISSLQPEDFATYYCHQYHRSPPTFGQGTKLEIK
modifications: IgG1 constant regions; VH2 amino acid sequence; VK3 amino acid sequence
binding to peptide-6 directly compared to VH2/VK2 on the same plate: marginally the best binding
